# Test results as given in publication PMC13006735 (Research, 2026).
# What was measured:
# [1] = biological target: T1, Sudan virus (SUDV) glycoprotein GP (Sudan ebolavirus, strain  for …, UniProt Q7T9D9); assay: cell-based or functional assay
# [2] = biological target: T1, Sudan virus (SUDV) glycoprotein GP; assay: SPR; conditions: both partners purified
Binder,"IC50, neutralisation of SUDV GP pseudovirus (luciferase, Huh7 cells) [1] [µg/mL]",Kd [2] [nM]
"ADI-15946 (antibody, V domains shown, also called wild-type ADI-15946; parental antibody) VH: EVQLVESGGGLVKPGGSLRLSCAASGFTFSNAWMSWVRQAPGKGLEWVGRIKSKTDGGTIDYAAPVKGRFTISRDDSKNTVYLQMTSLKTEDTAVYYCTTYTEDMRYFDWLLRGGETFDYWGQGTLVTVSS VL: DIRLTQSPSSLSASVGDRVTITCRASHYISTYLNWYQQKPGKAPKLLIYAASNLQSGVPSRFSGSGFGTDFSLTISSLQPEDFATYHCQQSYSTPGRYTFGQGTKVEIK",9.16,2.24
" (antibody, V domains shown, also called A50Y/S52Y/L54R-LC variant) VH: EVQLVESGGGLVKPGGSLRLSCAASGFTFSNAWMSWVRQAPGKGLEWVGRIKSKTDGGTIDYAAPVKGRFTISRDDSKNTVYLQMTSLKTEDTAVYYCTTYTEDMRYFDWLLRGGETFDYWGQGTLVTVSS VL: DIRLTQSPSSLSASVGDRVTITCRASHYISTYLNWYQQKPGKAPKLLIYYAYNRQSGVPSRFSGSGFGTDFSLTISSLQPEDFATYHCQQSYSTPGRYTFGQGTKVEIK",0.22,
" (antibody, V domains shown, also called H27Q/S52Y/G66R-LC variant) VH: EVQLVESGGGLVKPGGSLRLSCAASGFTFSNAWMSWVRQAPGKGLEWVGRIKSKTDGGTIDYAAPVKGRFTISRDDSKNTVYLQMTSLKTEDTAVYYCTTYTEDMRYFDWLLRGGETFDYWGQGTLVTVSS VL: DIRLTQSPSSLSASVGDRVTITCRASQYISTYLNWYQQKPGKAPKLLIYAAYNLQSGVPSRFSGSRFGTDFSLTISSLQPEDFATYHCQQSYSTPGRYTFGQGTKVEIK",0.08,
